Measurements as given in article PMC3424236, “Siderocalin/Lcn2/NGAL/24p3 Does Not Drive Apoptosis Through Gentisic Acid Mediated Iron Withdrawal in Hematopoietic Cell Lines” (PLoS ONE, 2012).

Target: T1, Scn (Mus musculus, UniProt P11672)
T1 construct: made in house; host or cells: E. coli
T1 sequence (P11672 21-200): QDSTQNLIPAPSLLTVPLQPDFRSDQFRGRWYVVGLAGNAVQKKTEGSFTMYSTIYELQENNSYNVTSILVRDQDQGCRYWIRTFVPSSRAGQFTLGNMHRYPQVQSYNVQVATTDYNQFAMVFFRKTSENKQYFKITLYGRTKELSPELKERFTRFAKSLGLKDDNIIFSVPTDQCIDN
Assay: Binding of BOCT subdomains and loop peptides to Scn (SPR, SEC)
Set-up: species or system murine
Experimental: NTD^1–102 and CTD^477–520 were expressed recombinantly in E. coli, the former as a His-tagged, periplasmically-targeted construct and the latter as a cytoplasmically-targeted, cleavable GST-fusion (Figures 5C and 5D). Binding of NTD or CTD to Scn was assayed by SEC (e. g., Figure 5E) and SPR (e. g., Figure 5D). In Figure 5D, 2086 SPR response units (RUs) of Scn were amine-coupled to CM5 sensor chips (Biacore) following the manufacturer’s protocol. CTD analytes, at concentrations from 3.125 to 50 µM, were injected in duplicate, in random order, for one minute at a flow rate of 20 µl/min on a Biacore 3000 system. Sensorgrams were blank-corrected by the double-subtraction method, using a capped channel as blank. […] Peptides corresponding to predicted cell-surface loops of significant length (>6 residues) in either topology were synthesized commercially (Genscript) with N-terminal biotin groups:
BOCT loop peptides were coupled to strepavidin-coated sensor chips and analyzed with Scn analytes using analogous methodology; as above, no quantifiable responses were detected (data not shown).

binding to Scn (SPR, SEC): Comparable results
B1: NTD: BOCT N-terminal domain, residues 1 through 102, recombinantly expressed in E. coli (protein)
chain: MPSARFGRRGIVLLTLGLVGPCGVGGAAAGSSTGIMALRFLLGFLLAGVDLGVYLMRLELCDPTQRLRVALAGELVGVGGHFLFLGLALVSKDWRFLQRMIT
modifications: left off: His tag, end not stated, state not stated
notes: BOCT N-terminal domain, residues 1 through 102, recombinantly expressed in E. coli
